# From patent US20240343788A1 (published 2024)
# B1: TGF-β3 (ligand)
# chain: ALDTNYCFRNLEENCCVRPLYIDFRQDLGWKWVHEPKGYYANFCSGPCPYLRSADTTHSTVLGLYNTLNPEASASPCCVPQDLEPLTILYYVGRTPKVEQLSNMVVKSCKCS
# notes: also called TGF-33 (misprint in the text)
# Biological target: T1, A155
# T1 construct: also called antibody-based multispecific antagonist A155
# Test: BLI (Octet RED96), antagonist captured on biosensor, ligand in solution
# Source text: The binding sensorgrams were collected using the 8-channel detection mode on the biosensor.
binder,measurement,value
B1,Kd,~20 nM
